Where a chain is given by its changes, count along the chain named.
B1: MOR022025 (antibody, human IgG1, lambda, L234A L235A, V domains shown)
VH: QVQLLESGGGLVQPGGSLRLSCAASGFTFSDYALHWVRQAPGKGLEWVSVISYQGGFIYYADSVKGRFTISRDNSKNTLYLQMNSLRAEDTAVYYCARSPGLTSYHDSWGQGTLVTVSS
VL: QSVLTQPPSVSGAPGQRVTISCSGSSSNIGSNYVSWYQQLPGTAPKLLIHSTSHRPSGVPDRFSGSKSGTSASLAITGLQAEDEADYYCQSWDYESERVVFGGGTKLTVLG
notes: Human IgG1f LALA; also called MOR20225; MOR020225
B2: MOR22028 (antibody, human IgG1, lambda, L234A L235A, V domains shown)
VH: B1 VH with Q54A, I58K, Y59F
VL: B1 VL with T52S
notes: Human IgG1f LALA; also called MOR022028; MOR20228
B3: MOR22030 (antibody, human IgG1, lambda, L234A L235A)
heavy: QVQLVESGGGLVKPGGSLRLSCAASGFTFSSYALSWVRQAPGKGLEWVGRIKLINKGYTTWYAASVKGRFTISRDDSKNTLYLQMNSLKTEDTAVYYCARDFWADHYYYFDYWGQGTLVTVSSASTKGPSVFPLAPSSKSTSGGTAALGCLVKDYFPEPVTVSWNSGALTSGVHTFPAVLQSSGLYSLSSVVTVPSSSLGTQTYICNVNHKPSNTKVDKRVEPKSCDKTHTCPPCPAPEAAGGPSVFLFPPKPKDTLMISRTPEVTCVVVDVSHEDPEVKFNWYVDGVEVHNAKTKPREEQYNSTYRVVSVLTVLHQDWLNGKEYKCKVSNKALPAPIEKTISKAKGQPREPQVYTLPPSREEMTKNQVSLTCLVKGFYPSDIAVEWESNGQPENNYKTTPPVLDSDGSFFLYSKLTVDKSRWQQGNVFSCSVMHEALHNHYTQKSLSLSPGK
light: QSALTQPASVSGSPGQSITISCTGTSSDVGYINYVNWYQQHPGKAPKLMIYEVSNRPSGVSNRFSGSKSGNTASLTISGLQAEDEADYYCASWDWYDNVVFGGGTKLTVLGQPKAAPSVTLFPPSSEELQANKATLVCLISDFYPGAVTVAWKADSSPVKAGVETTTPSKQSNNKYAASSYLSLTPEQWKSHRSYSCQVTHEGSTVEKTVAPTECS
notes: Human IgG1f LALA; also called MOR022030; MOR20230
B4: MOR22031 (antibody, human IgG1, kappa, L234A L235A, V domains shown)
VH: QVQLVQSGAEVKKPGSSVKVSCKASGGTFSDYAISWVRQAPGQGLEWMGGIMPISGAPYYAQKFQGRVTITADESTSTAYMELSSLRSEDTAVYYCARDSSTSYYYYFDYWGQGTLVTVSS
VL: DIQMTQSPSSLSASVGDRVTITCRASQDISSWLAWYQQKPGKAPKLLIYQASNLQSGVPSRFSGSGSGTDFTLTISSLQPEDFATYYCQQIDHTPFTFGQGTKVEIKR
notes: Human IgG1f LALA; also called MOR022031; MOR20231
B5: MOR22034 (antibody, human IgG1, kappa, L234A L235A, V domains shown)
VH: B4 VH with M52V, S55V, A57T, P58A, Y59N
VL: B4 VL with I91M, D92W, H93Q, T94F, F96I
notes: Human IgG1f LALA; also called MOR022034; MOR20234
B6: MOR22029 (antibody, human IgG1, lambda, L234A L235A)
heavy: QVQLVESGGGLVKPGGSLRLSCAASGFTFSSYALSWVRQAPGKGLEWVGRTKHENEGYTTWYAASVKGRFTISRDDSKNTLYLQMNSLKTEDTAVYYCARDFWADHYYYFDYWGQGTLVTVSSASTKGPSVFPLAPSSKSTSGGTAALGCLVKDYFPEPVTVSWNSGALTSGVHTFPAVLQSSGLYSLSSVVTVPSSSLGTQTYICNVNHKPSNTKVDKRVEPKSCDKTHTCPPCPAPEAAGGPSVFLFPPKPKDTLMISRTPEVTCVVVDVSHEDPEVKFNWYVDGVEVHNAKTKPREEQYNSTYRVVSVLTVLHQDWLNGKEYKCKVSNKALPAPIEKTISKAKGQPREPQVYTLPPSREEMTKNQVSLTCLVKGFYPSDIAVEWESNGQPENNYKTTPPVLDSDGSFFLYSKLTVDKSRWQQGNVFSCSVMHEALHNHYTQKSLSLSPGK
light: B3 light
notes: Human IgG1f LALA; also called MOR022029; MOR20229
B7: MOR020133 (antibody, human IgG1, lambda, L234A L235A, V domains shown)
VH: QVQLVQSGAEVKKPGESLKISCKGSGYSFTNYWIAWVRQMPGKGLEWMGRIFPGDSTTTYSPSFQGQVTISADKSISTAYLQWSSLKASDTAMYYCARGKRGATHPTQYEGWEVYGFDPWGQGTLVTVSS
VL: DIELTQPPSVSVSPGQTASITCSGDALGGKYASWYQQKPGQAPVLVIYDDNKRPSGIPERFSGSNSGNTATLTISGTQAEDEADYYCQSWAFYSGVFGGGTKLTVLG
notes: also called MOR20133
B8: MOR020144 (antibody, human IgG1, lambda, L234A L235A, V domains shown)
VH: B1 VH with Q54S, F57Y, I58T
VL: B1 VL with Q1D, S2I, T52N
notes: also called MOR20144
B9: MOR020148 (antibody, human IgG1, lambda, L234A L235A, V domains shown)
VH: QVQLLESGGGLVQSGGSLRLSCAASGFTFRSGAAMHWVRQAPGKGLEWVSGISSFSSSTDYADSVKGRFTISRDNSKNTLYLQMNSLRAEDTAVYYCARNFKYAMDYWGQGTLVTVSS
VL: DIALTQPASVSGSPGQSITISCTGTSSDVGSINYVSWYQQHPGKAPKMIYAVSYRPSGVSNRFSGSKSGNTASLTISGLQAEDEADYYCQVWDWRSDSRVFGGGTKLTVLG
notes: also called MOR20148
B10: MOR020151 (antibody, human IgG1, lambda, L234A L235A, V domains shown)
VH: QVQLVESGGGLVKPGGSLRLSCAASGFTFSSYALSWVRQAPGKGLEWVGRIKSKTMGGTSDYAAPVKGRFTISRDDSKNTLYLQMNSLKTEDTAVYYCARDFWADHYYYFDYWGQGTLVTVSS
VL: DIALTQPASVSGSPGQSITISCTGTSSDVGYINYVNWYQQHPGKAPKLMIYEVSNRPSGVSNRFSGSKSGNTASLTISGLQAEDEADYYCASWDWYDNVVFGGGTKLTVLG
notes: also called MOR20151
B11: MOR020052 (antibody, human IgG1, lambda, L234A L235A, V domains shown)
VH: QVQLVQSGAEVKKPGSSVKVSCKASGGTFSDYAISWVRQAPGQGLEWMGGIIPGFGQANYAQKFQGRVTITADESTSTAYMELSSLRSEDTAVYYCAREPSPLYGPYSDYVMDPWGQGTLVTVSS
VL: B10 VL with I32F, Y34F, N36S, E52D, W93Y, D94G, Y96D, D97S, N98S, V99W
notes: also called MOR20052
B12: MOR020152 (antibody, human IgG1, lambda, L234A L235A, V domains shown)
VH: QVQLVQSGAEVKKPGSSVKVSCKASGGTFSSYAISWVRQAPGQGLEWMGRIIPIFGGANYAQKFQGRVTITADESTSTAYMELSSLRSEDTAVYYCARDPLYRSDYYYHWFDFWGQGTLVTVSS
VL: DIALTQPASVSGSPGQSITISCTGTSSDVGNFNYVSWYQQHPGKAPKLMIYGVNNRPSGVSNRFSGSKSGNTASLTISGLQAEDEADYYCAAYGWALDEVVFGGGTKLTVLG
notes: also called MOR20152
B13: MOR020159 (antibody, human IgG1, kappa, L234A L235A, V domains shown)
VH: B4 VH with M52V, S55V, A57T, P58A, Y59N
VL: B4 VL with S30N
notes: also called MOR20159

target: T1, human LOX-1 (full-length, on cells) (human, UniProt P78380 1-273); test: cell-based or functional assay

Inhibition of ROS generation (IC50, nM) | Binder
4.6 nM | B1
3.5 nM | B2
2.5 nM | B3
1.9 nM | B4
1.6 nM | B5
2.2 nM | B6

target: T2, APP-Avi-soluble human LOX-1(61-273) (human, UniProt P78380 61-273); test: SET, IgG vs soluble human LOX-1
Method: (§1) Affinity determination for anti-LOX-1 IgGs using Solution Equilibrium Titration (SET) was basically performed as described in the literature (Friguet et al., 1985 J Immunol Methods 77: 305-319). The assays were performed in a 96-well polypropylene plate (Thermo Scientific, Catalog no. AB-1127) using a constant concentration of LOX-1 antibody mixed with different concentrations of non-biotinylated human or cynomolgus monkey LOX-1 protein and incubated at 22° C. for 14 hours with constant shaking (300 rpm).
(§2) On a pre-blocked MSD plate (Meso Scale Discovery, catalog no. L21SA) biotinylated human or cynomolgus monkey soluble LOX-1 protein was immobilized and washed afterwards. The equilibrium binding reactions were then applied to the MSD plate with immobilized LOX-1 and incubated for 30 min. The unbound material was removed by washing the plate, and the captured antibody was detected by adding Sulfo-tagged goat anti-human IgG (Meso Scale Discovery, catalog no. R3AJ-1). After incubation and washing 1×MSD read buffer T(Meso Scale Discovery, catalog no. R92TC-2) was added and the plate was developed using a Sector Imager 6000 (Meso Scale Discovery). The data were transferred to Excel for analysis and plotted using GraphPad Prism v5. The KD values were determined by fitting the data to the following equation: […]

Kd | Binder
144 pM | B7
0.2 pM | B8
0.3 pM | B1
0.6 pM | B2
6500 pM | B9
270 pM | B10
500 pM | B11
4 pM | B3
1.4 pM | B12
3 pM | B4
560 pM | B13
5 pM | B5
10 pM | B6

target: T2, APP-Avi-soluble human LOX-1(61-273); test: competition ELISA: oxLDL binding to plate-bound biotinylated human sLOX-1
Method: NeutrAvidin 384 well plates were coated with 2.5 μg/ml biotinylated LOX-1 diluted in PBS. After blocking with 25% Block Ace (AbD Serotec, Cat#BUF029) in PBS, purified Fabs or IgGs diluted in PBS/1% BSA were added. Subsequently OxLDL (copper-sulfate oxidized LDL, Kalen Biomedical #770202) or MDA-LDL (Academy Biomedical, #20P-UMD-L102) ligand diluted in PBS/1% BSA were allowed to bind to coated LOX-1. Secondary antibody (HRP conjugated sheep anti ApoB IgG; The Binding Site) diluted 1:1,000 in PBS/1% BSA was added followed by addition of TMB substrate (Thermo Scientific). After 10 minutes 1M H2SO4 was added and absorbance was determined at 450 nm. During early screenings, Fab fragments were also tested in this oxLDL binding assay using Fab-containing crude E. coli lysates.
The ability of LOX-1 antibodies to inhibit oxLDL binding to LOX-1 protein was determined using the method described in Example 4. In addition to “high binding OxLDL” from Kalen Biomedical (catalog number 770212-7), which is generated by copper sulfate mediated oxidation of LDL, two other forms of modified LDL were tested in this assay: malondialdehyde modified LDL (Academy Bio-Medical Co. catalog number 20P-MD-L105) and hypochlorite modified LDL. Hypochlorite modified LDL was prepared according to the following procedure. Human LDL (Kalen Biomedical catalog number 770200-4) was diluted with PBS to a final concentration of 0.25 mg/mL. Sodium hypochlorite (NaOCI, JT Baker catalog number 9416-01) was then added to 0.1 mM final concentration. The solution was incubated at room temperate for 4 hours, then quenched by adding L-methionine to a final concentration of reaction by adding 5 μl of 100 mM Mehionine per 200 μl total volume.

IC50 | Binder
6000 pM | B7
5000 pM | B8
11000 pM | B1
9000 pM | B2
9000 pM | B9
7000 pM | B10
12000 pM | B11
6000 pM | B3
5000 pM | B12
4000 pM | B4
5000 pM | B13
10000 pM | B5
4000 pM | B6

target: T3, APP-Avi-soluble cynomolgus monkey LOX-1(61-273) (cynomolgus monkey); test: SET, IgG vs soluble cynomolgus LOX-1
T3 construct: Non-biotinylated as titrated antigen in SET, biotinylated for capture on the plate; also called cyno sLOX-1; cynomolgus monkey soluble LOX-1
Method: as §1, §2

T3 sequence (chain, as listed by the source limits assumed): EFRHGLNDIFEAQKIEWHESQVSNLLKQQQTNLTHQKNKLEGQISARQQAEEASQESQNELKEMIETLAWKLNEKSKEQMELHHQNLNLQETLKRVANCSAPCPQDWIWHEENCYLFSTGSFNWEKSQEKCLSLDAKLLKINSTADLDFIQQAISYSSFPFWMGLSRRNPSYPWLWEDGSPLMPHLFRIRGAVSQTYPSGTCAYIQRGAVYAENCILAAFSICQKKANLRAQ

Kd | Binder
0.7 pM | B1
0.5 pM | B2
7 pM | B3
4 pM | B4
5 pM | B5
7 pM | B6

target: T1, human LOX-1 (full-length, on cells); test: flow cytometry: DiI-oxLDL binding to human LOX-1 transfected HEK293 cells
Method: The huLOX-1/HEK293 cells were resuspended at 1×10⁶ cells/mL and seeded 50 μL per well into a 96-well V-bottom plate (5×10⁴ cells per well). LOX-1 or irrelevant control antibodies in assay medium (DMEM+10% FBS) were then added to the cells. Typical final antibody concentrations ranged from 0.006 μg/mL to 20 μg/mL. The cells were incubated at 37° C. for 1 hour, then washed twice with warm HBSS. Dil-oxLDL (human dil-labeled “High Oxidized” LDL, Kalen Biomedical, catalog number 770262-9; Dil is 1,1′-dioctadecyl-3,3,3′,3′-tetramethylindocarbocyanine perchlorate) in 50 ul assay medium was then added to a final concentration 30 to 100 μg/mL. The cells were then incubated at 37° C. for 2 hours, and then washed twice with FACS buffer (2% FBS in PBS). Cells were then analyzed for intensity of Di-I fluorescence by flow cytometry, as depicted in FIGS. 2A-2B and Table 3.

IC50 | Binder
1000 pM | B1
700 pM | B2
500 pM | B3
800 pM | B4
600 pM | B5
400 pM | B6

— US20170260272A1 (Novartis, published 2017)
